Measured values taken from IntAct's records for PubMed 26040720.

B1: Reticulophagy regulator 1 (Homo sapiens), Q9H6L5-1 (parent)
chain: MASPAPPEHAEEGCPAPAAEEQAPPSPPPPQASPAERQQQEEEAQEAGAAEGAGLQVEEAAGRAAAAVTWLLGEPVLWLGCRADELLSWKRPLRSLLGFVAANLLFWFLALTPWRVYHLISVMILGRVIMQIIKDMVLSRTRGAQLWRSLSESWEVINSKPDERPRLSHCIAESWMNFSIFLQEMSLFKQQSPGKFCLLVCSVCTFFTILGSYIPGVILSYLLLLCAFLCPLFKCNDIGQKIYSKIKSVLLKLDFGIGEYINQKKRERSEADKEKSHKDDSELDFSALCPKISLTVAAKELSVSDTDVSEVSWTDNGTFNLSEGYTPQTDTSDDLDRPSEEVFSRDLSDFPSLENGMGTNDEDELSLGLPTELKRKKEQLDSGHRPSKETQSAAGLTLPLNSDQTFHLMSNLAGDVITAAVTAAIKDQLEGVQQALSQAAPIPEEDTDTEEGDDFELLDQSELDQIESELGLTQDQEAEAQQNKKSSGFLSNLLGGH

Variants of: B1
Conditions: with MAP1LC3A
For MASPAPPEHAEEGCPAPAAEEQAPPSPPPPQASPAERQQQEEEAQEAGAAEGAGLQVEEAAGRAAAAVTWLLGEPVLWLGCRADELLSWKRPLRSLLGFVAANLLFWFLALTPWRVYHLISVMILGRVIMQIIKDMVLSRTRGAQLWRSLSESWEVINSKPDERPRLSHCIAESWMNFSIFLQEMSLFKQQSPGKFCLLVCSVCTFFTILGSYIPGVILSYLLLLCAFLCPLFKCNDIGQKIYSKIKSVLLKLDFGIGEYINQKKRERSEADKEKSHKDDSELDFSALCPKISLTVAAKELSVSDTDVSEVSWTDNGTFNLSEGYTPQTDTSDDLDRPSEEVFSRDLSDFPSLENGMGTNDEDELSLGLPTELKRKKEQLDSGHRPSKETQSAAGLTLPLNSDQTFHLMSNLAGDVITAAVTAAIKDQLEGVQQALSQAAPIPEEDTDTEEGAAAAAADQSELDQIESELGLTQDQEAEAQQNKKSSGFLSNLLGGH [D453A;D454A;F455A;E456A;L457A;L458A], the “effect of a mutation on the interaction” value was “disrupting interaction strength”.
